Reference: article doi:10.1101/2021.12.01.470822

Target: ABD1 of PLS2 (human) (UniProt P13796)
Experiment: fluorescence polarisation

ABD1 of PLS2 (human), sequence (P13796 98-375): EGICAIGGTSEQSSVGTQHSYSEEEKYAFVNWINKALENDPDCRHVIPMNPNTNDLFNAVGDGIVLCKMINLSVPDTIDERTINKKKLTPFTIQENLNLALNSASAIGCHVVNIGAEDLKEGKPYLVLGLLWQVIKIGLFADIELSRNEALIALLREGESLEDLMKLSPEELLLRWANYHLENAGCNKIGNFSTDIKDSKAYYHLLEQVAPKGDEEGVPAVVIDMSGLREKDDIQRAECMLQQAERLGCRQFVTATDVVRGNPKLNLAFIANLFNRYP

## ABD2 of PLS2 with S406E (from UniProt P13796 1-627) (domain or fragment)
  Kd: 2000 nM
